From patent US7597905

Tests used:
[1] = biological target: HBsAg (G145R) particles (hepatitis B virus); experiment: Auszyme II EIA kit, S-antigenicity of purified particles
[2] = biological target: HBsAg particles (hepatitis B virus surface antigen L protein particles expressed in recombinant yeast carrying pGLDLIIP39-RcT) (hepatitis B virus); experiment: as above

Auszyme II EIA kit (Dainabot Co. Ltd.) (antibody)
S-antigenicity [1]: 0.2
S-antigenicity [2]: 1
